Laboratory results reported in the supplement of paper PMC9876800.

Test system: peptide library, one residue held at a place counted from the S/T acceptor
Assay: relative phosphorylation of the sub-library (ratio to the mean residue at this position); higher = residue favoured
How it was run: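 In 384-well plates, purified recombinant kinases (human or orthologue constructs) were incubated for 90 min under kinase-specific conditions with 50 μM biotinylated degenerate peptide sub-libraries and 50 μM ATP spiked with γ-32P-ATP. Each sub-library fixed a single residue at one position around a central Ser/Thr. Relative sub-library phosphorylation, measured by phosphorimaging and densitometry of streptavidin membrane spots, is given as a ratio to the mean residue at that position.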

UHMK1, construct: Full length, rat, sequence (Q63285 whole entry, looked up): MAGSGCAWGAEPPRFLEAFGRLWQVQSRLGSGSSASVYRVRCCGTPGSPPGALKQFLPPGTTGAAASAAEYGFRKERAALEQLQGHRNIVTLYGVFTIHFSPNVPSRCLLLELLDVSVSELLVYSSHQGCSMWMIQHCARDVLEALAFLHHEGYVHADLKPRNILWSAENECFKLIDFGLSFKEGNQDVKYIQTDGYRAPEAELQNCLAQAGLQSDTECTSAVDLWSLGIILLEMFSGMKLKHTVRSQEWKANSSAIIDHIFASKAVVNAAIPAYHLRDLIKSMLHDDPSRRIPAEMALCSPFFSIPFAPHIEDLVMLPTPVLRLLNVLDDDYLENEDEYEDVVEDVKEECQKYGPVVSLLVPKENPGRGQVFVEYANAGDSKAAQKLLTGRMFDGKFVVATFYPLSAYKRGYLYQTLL
EIF2AK4, construct: aa191-1024, human, sequence (Q9P2K8 191-1024, looked up): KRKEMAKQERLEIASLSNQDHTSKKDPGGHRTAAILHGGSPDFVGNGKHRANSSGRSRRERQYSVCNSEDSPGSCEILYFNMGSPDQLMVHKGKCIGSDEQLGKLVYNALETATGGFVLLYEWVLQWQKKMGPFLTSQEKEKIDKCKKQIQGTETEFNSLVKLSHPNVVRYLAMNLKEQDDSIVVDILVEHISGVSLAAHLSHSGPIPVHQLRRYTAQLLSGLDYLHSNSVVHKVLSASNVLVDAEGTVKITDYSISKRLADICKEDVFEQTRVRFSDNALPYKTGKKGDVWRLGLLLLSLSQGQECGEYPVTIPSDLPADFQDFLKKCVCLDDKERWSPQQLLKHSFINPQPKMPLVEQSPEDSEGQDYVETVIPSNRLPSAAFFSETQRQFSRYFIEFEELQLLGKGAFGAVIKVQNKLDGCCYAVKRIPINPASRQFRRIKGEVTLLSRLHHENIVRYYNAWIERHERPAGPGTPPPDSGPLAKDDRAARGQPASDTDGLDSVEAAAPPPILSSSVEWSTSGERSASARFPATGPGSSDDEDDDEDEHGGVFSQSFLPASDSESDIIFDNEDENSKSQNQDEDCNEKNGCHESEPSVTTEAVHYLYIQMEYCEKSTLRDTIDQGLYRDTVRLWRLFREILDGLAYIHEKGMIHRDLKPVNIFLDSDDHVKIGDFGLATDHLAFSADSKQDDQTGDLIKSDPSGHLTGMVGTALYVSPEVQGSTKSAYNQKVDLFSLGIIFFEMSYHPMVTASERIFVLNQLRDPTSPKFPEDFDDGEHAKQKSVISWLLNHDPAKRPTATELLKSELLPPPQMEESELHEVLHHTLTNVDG
MAP3K21, construct: aa98-451, human, sequence (Q5TCX8 98-451, looked up): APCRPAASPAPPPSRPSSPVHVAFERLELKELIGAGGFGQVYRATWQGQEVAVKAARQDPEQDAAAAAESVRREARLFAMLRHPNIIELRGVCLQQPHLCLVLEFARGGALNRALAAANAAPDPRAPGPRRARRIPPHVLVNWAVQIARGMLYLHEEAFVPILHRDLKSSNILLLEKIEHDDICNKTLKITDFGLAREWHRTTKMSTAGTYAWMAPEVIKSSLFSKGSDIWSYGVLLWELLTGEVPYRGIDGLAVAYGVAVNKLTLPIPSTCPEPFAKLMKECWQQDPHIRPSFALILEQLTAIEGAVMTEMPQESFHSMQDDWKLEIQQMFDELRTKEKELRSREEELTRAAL

UHMK1, construct: Full length, rat (from UniProt Q63285)
relative phosphorylation
Conditions	at +1	at +2	at +3	at +4	at -1	at -2	at -3	at -4	at -5
A fixed	0.707	1.1	1.58	1.14	1.16	1.12	0.872	0.961	0.981
D fixed	0.246	0.442	0.33	0.594	1.67	3.17	3.13	1.43	1.11
E fixed	0.266	0.515	0.397	1.54	0.818	1.86	2.01	1.14	1.02
F fixed	0.343	1.09	1.12	0.824	0.666	0.678	0.626	0.742	0.715
G fixed	0.86	1.08	0.906	0.915	1.54	1.22	1.11	1.02	0.994
H fixed	0.349	0.936	0.99	0.78	0.872	0.714	0.822	0.872	1.45
I fixed	0.665	1.18	0.77	1.36	0.636	0.663	0.704	0.917	0.931
K fixed	0.437	1.07	0.477	0.761	0.939	0.636	0.625	1.15	1.64
L fixed	0.363	1.02	0.872	0.86	0.808	0.677	0.672	0.95	1.22
M fixed	0.362	0.76	0.601	0.847	0.73	0.599	0.647	0.703	0.748
N fixed	0.299	0.664	0.402	0.588	1.36	0.945	1.09	1.28	1.18
P fixed	10.2	2.02	4.75	1.07	1.9	1.37	1.17	1.16	0.952
Q fixed	0.321	0.729	0.447	1.46	0.957	0.693	0.801	0.769	0.669
R fixed	0.388	0.958	0.829	0.681	0.81	0.592	0.674	0.677	0.749
V fixed	0.475	1.37	0.887	1.89	0.763	0.786	0.69	0.734	0.758
W fixed	0.362	0.831	0.732	0.792	0.681	0.631	0.665	1.79	1.13
Y fixed	0.337	1.25	0.91	0.891	0.687	0.642	0.685	0.712	0.749
pThr fixed	0.306	0.654	0.572	0.747	1.2	5.01	2.73	1.9	2.82
pTyr fixed	0.357	0.536	0.505	1.06	0.702	2.41	2.11	1.36	0.883

MAP2K1, construct: Full length, human (from UniProt Q02750)
relative phosphorylation
Conditions	at +1	at +2	at +3	at +4	at -1	at -2	at -3	at -4	at -5
A fixed	0.7	0.969	0.94	0.939	1.03	0.942	1.02	0.999	1.03
D fixed	1.55	0.835	1.02	1	0.876	0.955	1.02	1.13	1.08
E fixed	0.866	0.696	0.898	0.911	0.722	0.931	1	1.2	0.95
F fixed	1.18	0.746	0.992	0.92	0.933	1.72	1.04	1.04	1.81
G fixed	0.753	0.712	1.11	1.07	1.35	0.808	0.725	0.902	0.816
H fixed	0.877	3.48	1.29	0.998	1.02	2.03	1.07	1.11	0.992
I fixed	1.56	0.839	0.852	0.976	0.77	0.695	0.998	0.961	0.94
K fixed	0.629	0.84	0.923	0.885	1.07	0.768	1.09	0.861	0.925
L fixed	1.18	0.718	0.947	1.05	1.32	0.787	1.02	0.891	0.943
M fixed	1.42	0.924	0.909	0.949	1.14	1.02	1.02	1.06	0.909
N fixed	0.738	0.738	0.854	0.83	0.959	0.994	0.781	0.974	0.882
P fixed	0.71	0.775	0.969	1.04	0.768	0.615	0.707	0.806	0.935
Q fixed	0.743	0.79	0.854	0.916	0.967	0.834	0.92	0.896	0.886
R fixed	0.616	0.85	0.916	0.875	1.05	0.955	1.36	0.922	0.907
V fixed	1.21	0.913	0.861	0.895	0.848	0.67	0.94	1.06	0.978
W fixed	1.13	0.87	1.37	1.5	1.02	1.13	1.22	1.11	1.01
Y fixed	1.13	1.31	1.29	1.25	1.17	1.14	1.06	1.09	1.01
pThr fixed	1.45	1.08	0.988	1.02	0.87	0.824	1.7	1.14	0.922
pTyr fixed	1.11	0.882	1.11	0.958	0.875	0.763	0.869	1.04	0.873

EIF2AK4, construct: aa191-1024, human (from UniProt Q9P2K8)
relative phosphorylation
Conditions	at +1	at +2	at +3	at +4	at -1	at -2	at -3	at -4	at -5
A fixed	0.622	0.832	0.837	0.891	0.732	0.958	0.968	1.01	1.07
D fixed	0.335	1.1	0.504	0.75	1.22	2.28	1.62	1.47	1.12
E fixed	0.537	0.351	0.539	0.788	0.894	2.2	1.68	1.16	1.06
F fixed	2.06	0.645	0.948	0.945	0.836	1.18	0.891	0.86	1.07
G fixed	0.757	0.811	2.04	1.16	1.03	1.02	0.924	1.1	1.06
H fixed	1.04	1.8	1.02	0.969	1.12	0.964	0.901	1.18	1.17
I fixed	0.858	0.689	0.699	0.896	0.635	0.533	0.76	0.77	0.823
K fixed	0.724	0.717	1.11	1.08	0.78	0.555	0.695	0.945	1.04
L fixed	0.621	0.631	0.75	0.976	1.15	0.693	1.02	0.829	0.726
M fixed	1.68	0.59	0.826	0.973	1.11	1.09	1.08	0.846	0.825
N fixed	0.933	0.841	0.829	0.867	1.38	1.21	0.959	1.04	0.923
P fixed	0.162	0.475	1.9	1.07	0.629	0.643	0.699	0.825	0.824
Q fixed	1.28	0.611	0.774	0.811	1.26	0.968	0.976	0.997	0.881
R fixed	1.03	1.98	1.28	1.2	1.08	0.654	0.844	0.882	1.26
V fixed	0.996	0.773	0.74	0.849	0.961	0.52	0.727	0.838	0.926
W fixed	1.24	1.29	0.998	1.62	1.04	0.698	1.16	1.25	1.25
Y fixed	2.13	2.85	1.2	1.16	1.13	0.828	1.1	1	0.975
pThr fixed	0.715	0.592	0.686	0.736	0.803	1.16	0.969	1.03	0.724
pTyr fixed	0.656	0.789	0.83	1.55	1.43	0.652	1.01	0.867	0.881

MAP3K21, construct: aa98-451, human (from UniProt Q5TCX8)
relative phosphorylation
Conditions	at +1	at +2	at +3	at +4	at -1	at -2	at -3	at -4	at -5
A fixed	0.66	0.456	0.721	0.893	0.777	0.912	0.933	1.05	1.07
D fixed	0.244	0.223	0.462	0.682	1.23	1.55	1.72	1.84	1.8
E fixed	0.435	0.323	0.508	0.676	0.821	1.43	1.97	1.81	1.63
F fixed	1.52	0.38	1.08	0.633	0.875	1.02	0.789	0.676	0.82
G fixed	0.585	0.397	0.796	1.11	0.386	0.992	1.17	1.37	1.24
H fixed	1.21	2.1	1.61	1.16	1.46	1.19	1.19	1.12	1.06
I fixed	1.28	0.502	0.71	0.622	0.534	0.537	0.406	0.49	0.485
K fixed	1.25	2.23	1.52	2.18	1.03	0.356	0.702	0.83	1.03
L fixed	0.726	0.507	1.14	0.58	0.711	0.699	0.545	0.513	0.609
M fixed	1.61	0.467	0.881	0.722	0.914	1.04	0.806	0.818	0.654
N fixed	0.62	0.624	0.829	0.871	1.43	1.18	1.22	1.16	1.01
P fixed	0.185	0.18	0.398	1.46	0.679	1.85	1.19	1.19	1.08
Q fixed	1.16	0.88	0.849	1.16	1.02	1.05	1.16	0.968	0.99
R fixed	1.92	3.75	1.87	2.13	1.4	0.593	0.817	0.902	1.13
V fixed	1.98	0.426	0.81	0.753	0.875	0.52	0.496	0.595	0.682
W fixed	0.707	1.91	1.41	0.702	1.19	0.909	0.872	0.886	0.825
Y fixed	0.907	1.65	1.41	0.661	1.67	1.18	1.02	0.779	0.886
pThr fixed	1.13	0.418	0.664	0.851	0.803	1.09	1.84	1.28	1.35
pTyr fixed	0.604	0.427	0.692	0.519	1.83	1.01	1.17	1.11	1.22
